Here are results for 15 molecules from patent US20230250148A1 (published 2023).

Assay [1] concerns the target T1, human insulin receptor (IR) on human IM-9 cells (human, UniProt P06213 28-1382).
T1 construct: whole, on cells; also called human IR
In words: competition with biotinylated RHI on IM-9 cells, flow cytometry, 4 C. How it is done:
(§1) 40 µL of an IM-9 cell suspension (8×10⁶ cells/mL) was then added to each well by multichannel pipette, mixed again gently and incubated on ice for 30 min to allow competitive binding on the IR on IM-9 cells. Cells were then washed twice with 275µL of ice-cold FACS wash buffer (HBSS/2mM EDTA/0.1% Na-azide + 0.5% horse serum) by centrifuging the V-bottom plate at 3000 rpm for 3 min and aspirating the supernatant. Cells were then resuspended in 40µL of FACS staining medium containing 1:100 diluted Streptavidin-PE (Life Technologies) for 20 min on ice. Cells were then washed once with 275 µL of ice-cold FACS buffer and finally fixed with 3% paraformaldehyde for 10 min at room temp. Cells were then washed once with 275 µL of ice-cold FACS buffer and resuspended in 250µl of FACS buffer for analysis.
(§2) The insulin-Fc fusion proteins were manufactured in HEK293 cells according to Example 1 and purified using a Protein A column according to Example 4. Their structures were confirmed according to Example 6 by non-reducing and reducing CE-SDS, and the sequences were further identified by LC-MS with glycan removal according to Example 8. Their %homodimer content was measured by size-exclusion chromatography according to Example 10, and their insulin receptor binding affinities were measured according to Example 12.

Assay [2] has as its target T1, human insulin receptor (IR) on human …. The assay is described as above. How it is done: as §1, §2
The source holds these as a separate data set.

The target of assay [3] is T2, biotinylated recombinant human Fc(gamma)RI (human, UniProt P12314 16-288, biotinylated, site not stated).
T2 construct: Bought reagent; construct not described; also called rhFc(gamma)RI; Fc(gamma) receptor I
Kind of assay: ELISA, fusion protein coated, biotinylated rhFc(gamma)RI at 3000 ng/mL. On the procedure: (§3) The binding of insulin-Fc fusion proteins to the Fc(gamma)RI at pH 7.4 is conducted using an ELISA assay as follows using human Fc(gamma)RI (i.e., rhFc(gamma)RI). Insulin-Fc fusion proteins are diluted to 10 µg/mL in sodium bicarbonate buffer at pH 9.6 and coated on Maxisorp (Nunc) microtiter plates overnight at 4° C., after which the microplate strips are washed 5 times with PBST (PBS/0.05% Tween-20) buffer and blocked with Superblock blocking reagent (ThermoFisher). Serial dilutions of biotinylated rhFc(gamma)RI (recombinant human Fc(gamma)RI; R&D Systems) are prepared in PBST/10% Superblock buffer from 3000 ng/mL to 4.1 ng/mL and loaded at 100 µL/well onto the microplate strips coated with insulin-Fc fusion protein. The microtiter plate is incubated for 1 hour at room temperature after which time the microplate strips are washed 5 times with PBST and then loaded with 100 µL/well of streptavidin-HRP diluted 1:10000 in PBST/10% Superblock buffer. After incubating for 45 min, the microplate strips are washed again 5 times with PBST. TMB is added to reveal the bound Fc(gamma)RI proteins and is stopped with ELISA stop reagent (Boston Bioproducts). The plate is read in an ELISA plate reader at 450 nm, and the OD450 values (proportional to the binding of rhFc(gamma)RI to insulin-Fc protein) are plotted against log concentrations of rhFc(gamma)RI added to each well to generate binding curves using GraphPad Prism software. For groupings of compounds with somewhat similar curves, the OD450 at one of the higher concentrations, for instance at rhFc(gamma)RI concentrations of 3000 ng/mL, can be used to identify differences between coated insulin-Fc fusion protein compounds. […]
Finally, select compounds were tested for their likelihood to interact with the immune system by measuring their Fc(gamma) receptor binding activity according to the procedure of Example 15.

Assay [4] addresses T2, biotinylated recombinant human …. In words: ELISA, fusion protein coated, biotinylated rhFc(gamma)RI in solution. On the procedure:
as §3

Assay [5] concerns the target T1, human insulin receptor (IR) on human …. Kind of assay: competition with biotinylated RHI on IM-9 cells, flow cytometry, 4 C. How it is done: as §1
The lack of in vivo potency for the insulin-Fc fusion protein of SEQ ID NO: 43 correlates with its high IC50 (shown in Table 9 below) as measured by the insulin receptor binding assay according to the method of Example 12.
The source holds these as a separate data set.

The target is the same in assay [6]. The description is as above. How it is done:
as §1, §2
The source holds these as a separate data set.

Positions count from the first letter of the chain named. Read-outs that look alike come from different tables or passages of the source.

T2 sequence (P12314 16-288 limits assumed): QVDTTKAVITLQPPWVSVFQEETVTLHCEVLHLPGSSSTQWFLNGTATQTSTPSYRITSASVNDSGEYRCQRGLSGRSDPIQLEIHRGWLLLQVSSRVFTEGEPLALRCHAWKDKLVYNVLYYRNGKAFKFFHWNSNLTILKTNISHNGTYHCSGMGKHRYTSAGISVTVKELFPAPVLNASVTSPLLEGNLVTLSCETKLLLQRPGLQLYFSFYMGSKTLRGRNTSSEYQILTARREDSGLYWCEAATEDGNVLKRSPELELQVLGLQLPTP
T1 sequence (P06213 28-1382): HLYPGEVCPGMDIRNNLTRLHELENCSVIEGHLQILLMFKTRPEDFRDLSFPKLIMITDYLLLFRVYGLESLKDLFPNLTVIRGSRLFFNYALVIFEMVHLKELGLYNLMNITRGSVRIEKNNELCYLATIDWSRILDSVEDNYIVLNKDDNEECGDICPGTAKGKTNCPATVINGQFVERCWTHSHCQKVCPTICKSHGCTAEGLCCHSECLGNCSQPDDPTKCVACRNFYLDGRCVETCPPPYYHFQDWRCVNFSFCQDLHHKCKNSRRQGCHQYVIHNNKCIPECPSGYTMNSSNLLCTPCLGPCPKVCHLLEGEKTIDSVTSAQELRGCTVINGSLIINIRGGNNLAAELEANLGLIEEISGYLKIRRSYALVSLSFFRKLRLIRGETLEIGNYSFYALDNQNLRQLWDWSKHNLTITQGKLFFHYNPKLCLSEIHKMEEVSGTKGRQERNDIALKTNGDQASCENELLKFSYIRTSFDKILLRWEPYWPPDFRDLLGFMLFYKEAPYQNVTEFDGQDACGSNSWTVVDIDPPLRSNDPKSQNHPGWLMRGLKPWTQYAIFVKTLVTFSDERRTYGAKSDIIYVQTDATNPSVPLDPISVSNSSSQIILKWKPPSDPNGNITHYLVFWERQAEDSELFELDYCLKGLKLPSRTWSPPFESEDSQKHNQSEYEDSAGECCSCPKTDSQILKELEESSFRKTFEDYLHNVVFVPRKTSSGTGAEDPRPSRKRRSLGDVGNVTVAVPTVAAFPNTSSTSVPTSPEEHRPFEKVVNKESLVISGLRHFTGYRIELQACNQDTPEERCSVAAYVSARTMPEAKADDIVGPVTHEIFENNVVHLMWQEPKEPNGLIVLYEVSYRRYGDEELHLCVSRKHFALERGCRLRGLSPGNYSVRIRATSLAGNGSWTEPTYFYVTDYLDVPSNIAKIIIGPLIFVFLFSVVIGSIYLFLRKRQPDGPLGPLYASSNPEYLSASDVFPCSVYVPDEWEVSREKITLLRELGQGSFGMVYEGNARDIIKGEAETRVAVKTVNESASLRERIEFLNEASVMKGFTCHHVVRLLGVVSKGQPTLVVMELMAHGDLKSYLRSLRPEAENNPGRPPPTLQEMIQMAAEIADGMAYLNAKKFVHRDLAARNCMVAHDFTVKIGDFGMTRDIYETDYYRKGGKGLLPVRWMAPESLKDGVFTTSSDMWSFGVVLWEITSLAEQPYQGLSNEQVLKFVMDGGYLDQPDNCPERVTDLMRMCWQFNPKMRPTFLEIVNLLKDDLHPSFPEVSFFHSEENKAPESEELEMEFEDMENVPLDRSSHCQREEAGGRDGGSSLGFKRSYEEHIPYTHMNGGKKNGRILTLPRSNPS

B1: insulin-Fc fusion protein of SEQ ID NO: 55 (Fc fusion)
chain: FVNQHLCGSHLVEALELVCGERGFFYTPKTGGSGGGGGIVEQCCTSTCSLDQLENYCGGGGGQGGGGQGGGGQGGGGGDCPKCPAPEMLGGPSVFIFPPKPKDTLLIARTPEVTCVVVDLDPEDPEVQISWFVDGKQMQTAKTQPREEQFNGTYRVVSVLPIGHQDWLKGKQFTCKVNNKALPSPIERTISKARGQAHQPSVYVLPPSREELSKNTVSLTCLIKDFFPPDIDVEWQSNGQQEPESKYRTTPPQLDEDGSYFLYSKLSVDKSRWQRGDTFICAVMHEALHNHYTQESLSHSPG
In assay [1], B1 yielded an IC50 of 3870 nM.

B2: insulin-Fc fusion protein of SEQ ID NO: 62 (Fc fusion)
chain: B1 chain with F25H, T27G, P28G, K29G, T30G, N151S
notes: 71% homodimer
B2 yielded a half-maximal inhibitory concentration (IC50) in assay [2] of 2300 nM. In assay [3], the OD450nm was 0.175, the “OD450nm minus assay background” value amounted to 0.118 and the “ratio to SEQ ID NO: 36” value is 0.32.

B3: insulin-Fc fusion protein of SEQ ID NO: 61 (Fc fusion)
chain: B1 chain with F25H, T27G, P28G, K29G, T30G, D119A, N151S
notes: 73% homodimer
Molecule B3 came in with an IC50 in assay [2] of 3090 nM. For the same molecule, in assay [3], the OD450nm was 0.166, the “OD450nm minus assay background” value was determined as 0.109 and the “ratio to SEQ ID NO: 36” value stood at 0.29.

B4: insulin-Fc fusion protein of SEQ ID NO: 57 (Fc fusion)
chain: B1 chain with T27G, P28G, K29G, T30G
For B4, in assay [1], the IC50 stood at 2040 nM.

B5: insulin-Fc fusion protein of SEQ ID NO: 42 (Fc fusion)
chain: FVNQHLCGSDLVEALALVCGERGFFYTDPTGGGPRRGIVEQCCHSICSLYQLENYCNGGGGAGGGGDCPKCPAPEMLGGPSVFIFPPKPKDTLLIARTPEVTCVVVDLDPEDPEVQISWFVDGKQMQTAKTQPREEQFKGTYRVVSVLPIGHQDWLKGKQFTCKVNNKALPSPIERTISKARGQAHQPSVYVLPPSREELSKNTVSLTCLIKDFFPPDIDVEWQSNGQQEPESKYRTTPPQLDEDGSYFLYSKLSVDKSRWQRGDTFICAVMHEALHNHYTQESLSHSPG
notes: non-glycosylated
For B5, in assay [4], the OD450nm stood at 0.126, the “OD450nm minus assay background” value came to 0.063 and the “ratio to SEQ ID NO: 36” value amounted to 0.2.

B6: insulin-Fc fusion protein of SEQ ID NO: 49 (Fc fusion)
chain: FVNQHLCGSHLVQALYLVCGERGFFYTDPTQRGGGGGQRGIVEQCCTSICSLYQLENYCGGGGAGGGGDCPKCPAPEMLGGPSVFIFPPKPKDTLLIARTPEVTCVVVDLDPEDPEVQISWFVDGKQMQTAKTQPREEQFSGTYRVVSVLPIGHQDWLKGKQFTCKVNNKALPSPIERTISKARGQAHQPSVYVLPPSREELSKNTVSLTCLIKDFFPPDIDVEWQSNGQQEPESKYRTTPPQLDEDGSYFLYSKLSVDKSRWQRGDTFICAVMHEALHNHYTQESLSHSPG
In turn, B6 had a 50% inhibitory concentration (IC50) in assay [1] of 4180 nM.

B7: insulin-Fc fusion protein of SEQ ID NO: 44 (Fc fusion)
chain: FVNQHLCGSHLVQALYLVCGERGFFYTDPTGGGPRRGIVEQCCTSICSLYQLENYCGGGGAGGGGDCPKCPAPEMLGGPSVFIFPPKPKDTLLIARTPEVTCVVVDLDPEDPEVQISWFVDGKQMQTAKTQPREEQFSGTYRVVSVLPIGHQDWLKGKQFTCKVNNKALPSPIERTISKARGQAHQPSVYVLPPSREELSKNTVSLTCLIKDFFPPDIDVEWQSNGQQEPESKYRTTPPQLDEDGSYFLYSKLSVDKSRWQRGDTFICAVMHEALHNHYTQESLSHSPG
Take B7: the IC50 in assay [5] is 2620 nM.

B8: insulin-Fc fusion protein of SEQ ID NO: 54 (Fc fusion)
chain: B7 chain with Q13E, Y16A, D28Q, P29G, T30G, P34G, R35G, R36G
In assay [6], B8 yielded a half-maximal inhibitory concentration (IC50) of 2200 nM.

B9: insulin-Fc fusion protein of SEQ ID NO: 47 (Fc fusion)
chain: B7 chain with Q13E, Y16A, F25Y
For B9, the IC50 in assay [5] was determined as 2400 nM.

B10: insulin-Fc fusion protein of SEQ ID NO: 45 (Fc fusion)
chain: B7 chain with H10E, Q13E, Y16A
For B10, the half-maximal inhibitory concentration (IC50) in assay [5] was 633 nM.

B11: insulin-Fc fusion protein of SEQ ID NO: 52 (Fc fusion)
chain: B7 chain with Q13E, Y16A, D28P, P29G, T30G, P34G, R35G, R36G
Turning to B11, the IC50 in assay [6] is 1930 nM; in assay [1] it was 4720 nM.

B12: insulin-Fc fusion protein of SEQ ID NO: 50 (Fc fusion)
chain: FVNQHLCGSHLVEALALVCGERGFFYTDPTGGGGGGSGGGGGIVEQCCTSICSLYQLENYCGGGGAGGGGDCPKCPAPEMLGGPSVFIFPPKPKDTLLIARTPEVTCVVVDLDPEDPEVQISWFVDGKQMQTAKTQPREEQFSGTYRVVSVLPIGHQDWLKGKQFTCKVNNKALPSPIERTISKARGQAHQPSVYVLPPSREELSKNTVSLTCLIKDFFPPDIDVEWQSNGQQEPESKYRTTPPQLDEDGSYFLYSKLSVDKSRWQRGDTFICAVMHEALHNHYTQESLSHSPG
Turning to B12, the IC50 in assay [1] worked out at 1610 nM.

B13: insulin-Fc fusion protein of SEQ ID NO: 56 (Fc fusion)
chain: FVNQHLCGSHLVEALELVCGERGFHYGGGGGGSGGGGGIVEQCCTSTCSLDQLENYCNHGGGGQGGGGQGGGGQGGGGGDCPKCPAPEMLGGPSVFIFPPKPKDTLLIARTPEVTCVVVDLDPEDPEVQISWFVDGKQMQTAKTQPREEQFNGTYRVVSVLPIGHQDWLKGKQFTCKVNNKALPSPIERTISKARGQAHQPSVYVLPPSREELSKNTVSLTCLIKDFFPPDIDVEWQSNGQQEPESKYRTTPPQLDEDGSYFLYSKLSVDKSRWQRGDTFICAVMHEALHNHYTQESLSHSPG
notes: Combined variant, canine IgGB Fc with native cNg
B13 returned an IC50 in assay [1] of 554 nM.

B14: insulin-Fc fusion protein of SEQ ID NO: 28 (Fc fusion)
chain: B13 chain with H59G
For the molecule B14, the IC50 in assay [1] came to 1250 nM.

B15: insulin-Fc fusion protein of SEQ ID NO: 51 (Fc fusion)
chain: FVNQHLCGSHLVEALALVCGERGFFYTDPGGGGGGGGGIVEQCCTSICSLYQLENYCGGGGAGGGGDCPKCPAPEMLGGPSVFIFPPKPKDTLLIARTPEVTCVVVDLDPEDPEVQISWFVDGKQMQTAKTQPREEQFSGTYRVVSVLPIGHQDWLKGKQFTCKVNNKALPSPIERTISKARGQAHQPSVYVLPPSREELSKNTVSLTCLIKDFFPPDIDVEWQSNGQQEPESKYRTTPPQLDEDGSYFLYSKLSVDKSRWQRGDTFICAVMHEALHNHYTQESLSHSPG
As to B15, in assay [6], the IC50 worked out at 1920 nM.
